PMC11804907

What was measured:
Assay in all cases: synthetic bead recruitment assay in embryos (fluorescence intensity at ALFA-tag-Nanobody-coupled beads)
[1] = molecular target: Polo-GFP (UniProt P52304); details: beads injected into embryos expressing RFP-Cnn and Polo-GFP with mRNA encoding ALFA-tagged Spd-2; beads-only background est. 1.0; parent: est. 2.0; read off a plot
[2] = molecular target: mCherry-TACC (UniProt Q9VN51); details: beads injected into embryos expressing mCherry-TACC and AurA-GFP with mRNA encoding ALFA-tagged Spd-2; beads-only background est. 0.65; parent: est. 2.0; read off a plot
Sequence of UniProt Q9VN51 (Q9VN51 entry or part of it): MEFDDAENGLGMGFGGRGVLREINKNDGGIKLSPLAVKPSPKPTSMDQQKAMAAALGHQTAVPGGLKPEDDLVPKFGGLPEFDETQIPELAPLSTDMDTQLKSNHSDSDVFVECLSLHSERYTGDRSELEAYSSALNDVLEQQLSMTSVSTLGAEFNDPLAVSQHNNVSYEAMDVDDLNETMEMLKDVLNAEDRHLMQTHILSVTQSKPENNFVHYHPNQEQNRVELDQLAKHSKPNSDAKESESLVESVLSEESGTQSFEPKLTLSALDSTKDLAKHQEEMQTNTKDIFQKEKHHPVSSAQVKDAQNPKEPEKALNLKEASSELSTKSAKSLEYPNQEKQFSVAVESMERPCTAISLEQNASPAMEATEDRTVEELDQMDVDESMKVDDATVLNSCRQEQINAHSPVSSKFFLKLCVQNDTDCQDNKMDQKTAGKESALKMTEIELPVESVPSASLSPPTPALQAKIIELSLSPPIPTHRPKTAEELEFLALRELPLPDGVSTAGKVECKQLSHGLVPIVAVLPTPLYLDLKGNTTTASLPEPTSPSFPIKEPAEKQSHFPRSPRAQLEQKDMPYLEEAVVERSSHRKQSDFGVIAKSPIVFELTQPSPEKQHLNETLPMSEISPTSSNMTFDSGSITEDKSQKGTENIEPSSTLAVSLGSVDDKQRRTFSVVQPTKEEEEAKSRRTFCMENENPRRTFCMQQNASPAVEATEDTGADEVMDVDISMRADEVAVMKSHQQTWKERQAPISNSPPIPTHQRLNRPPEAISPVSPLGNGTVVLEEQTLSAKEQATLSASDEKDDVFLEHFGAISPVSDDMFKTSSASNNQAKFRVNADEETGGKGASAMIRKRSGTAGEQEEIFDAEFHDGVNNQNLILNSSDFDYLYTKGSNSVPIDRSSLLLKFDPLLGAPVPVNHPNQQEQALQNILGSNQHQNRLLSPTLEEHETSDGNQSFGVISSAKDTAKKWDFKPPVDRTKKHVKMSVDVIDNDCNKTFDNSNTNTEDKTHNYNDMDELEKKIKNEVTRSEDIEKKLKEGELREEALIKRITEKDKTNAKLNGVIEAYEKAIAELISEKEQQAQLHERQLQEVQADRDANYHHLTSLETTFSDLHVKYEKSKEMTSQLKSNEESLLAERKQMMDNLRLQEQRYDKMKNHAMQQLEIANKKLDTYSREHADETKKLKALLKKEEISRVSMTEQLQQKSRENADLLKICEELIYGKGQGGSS

[3] = molecular target: AurA-GFP (UniProt Q27393); details: beads injected into embryos expressing mCherry-TACC and AurA-GFP with mRNA encoding ALFA-tagged Spd-2; beads-only background est. 0.5; parent: est. 2.1; read off a plot
Sequence of UniProt Q27393 (Q27393 entry or part of it): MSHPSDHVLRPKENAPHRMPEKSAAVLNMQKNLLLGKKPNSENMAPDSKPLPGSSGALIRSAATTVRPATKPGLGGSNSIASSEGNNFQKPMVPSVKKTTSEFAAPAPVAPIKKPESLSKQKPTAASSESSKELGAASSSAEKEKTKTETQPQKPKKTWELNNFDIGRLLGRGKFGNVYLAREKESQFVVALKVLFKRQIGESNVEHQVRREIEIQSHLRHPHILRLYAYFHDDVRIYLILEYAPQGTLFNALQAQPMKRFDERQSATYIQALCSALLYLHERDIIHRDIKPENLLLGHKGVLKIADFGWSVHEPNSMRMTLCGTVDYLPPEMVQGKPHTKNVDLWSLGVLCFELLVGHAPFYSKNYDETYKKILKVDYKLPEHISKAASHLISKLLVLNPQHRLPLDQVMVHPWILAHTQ

[4] = molecular target: RFP-Cnn (UniProt P54623); details: beads injected into embryos expressing RFP-Cnn and Polo-GFP with mRNA encoding ALFA-tagged Spd-2; beads-only background est. 0.75; parent: est. 2.4; read off a plot
Sequence of UniProt P54623 (P54623 whole entry): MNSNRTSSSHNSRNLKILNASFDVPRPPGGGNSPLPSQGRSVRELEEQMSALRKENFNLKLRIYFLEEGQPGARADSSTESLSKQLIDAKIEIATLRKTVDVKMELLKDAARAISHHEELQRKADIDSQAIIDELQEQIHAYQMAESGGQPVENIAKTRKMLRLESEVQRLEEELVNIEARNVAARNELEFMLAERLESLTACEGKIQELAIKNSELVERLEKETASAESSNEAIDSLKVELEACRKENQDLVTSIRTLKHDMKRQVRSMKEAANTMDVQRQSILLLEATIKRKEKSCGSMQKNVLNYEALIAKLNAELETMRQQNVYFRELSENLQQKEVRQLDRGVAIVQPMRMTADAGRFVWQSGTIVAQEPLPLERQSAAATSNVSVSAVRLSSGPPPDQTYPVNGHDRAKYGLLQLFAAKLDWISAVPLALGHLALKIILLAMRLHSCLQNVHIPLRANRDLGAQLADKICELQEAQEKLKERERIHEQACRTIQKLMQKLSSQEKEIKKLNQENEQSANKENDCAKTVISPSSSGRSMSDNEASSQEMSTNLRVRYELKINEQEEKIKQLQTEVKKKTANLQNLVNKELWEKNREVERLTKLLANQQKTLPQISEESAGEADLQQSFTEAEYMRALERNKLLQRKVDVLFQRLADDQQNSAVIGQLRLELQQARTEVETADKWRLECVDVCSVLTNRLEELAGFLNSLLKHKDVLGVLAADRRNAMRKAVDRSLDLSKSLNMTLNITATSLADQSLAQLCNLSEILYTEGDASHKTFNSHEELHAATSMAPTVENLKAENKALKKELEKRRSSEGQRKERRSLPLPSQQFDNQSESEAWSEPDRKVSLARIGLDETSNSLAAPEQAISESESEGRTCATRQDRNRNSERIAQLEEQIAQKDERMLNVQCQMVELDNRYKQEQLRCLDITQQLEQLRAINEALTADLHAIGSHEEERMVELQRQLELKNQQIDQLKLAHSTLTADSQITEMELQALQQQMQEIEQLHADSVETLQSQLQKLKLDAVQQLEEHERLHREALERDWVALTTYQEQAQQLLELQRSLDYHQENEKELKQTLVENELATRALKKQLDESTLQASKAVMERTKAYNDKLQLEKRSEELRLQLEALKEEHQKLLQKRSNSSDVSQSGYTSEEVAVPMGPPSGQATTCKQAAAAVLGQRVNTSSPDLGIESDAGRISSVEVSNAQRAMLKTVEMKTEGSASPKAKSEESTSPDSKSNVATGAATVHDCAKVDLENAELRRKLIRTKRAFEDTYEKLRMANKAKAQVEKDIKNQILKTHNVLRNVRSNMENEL

Sequence of UniProt P52304 (P52304 whole entry): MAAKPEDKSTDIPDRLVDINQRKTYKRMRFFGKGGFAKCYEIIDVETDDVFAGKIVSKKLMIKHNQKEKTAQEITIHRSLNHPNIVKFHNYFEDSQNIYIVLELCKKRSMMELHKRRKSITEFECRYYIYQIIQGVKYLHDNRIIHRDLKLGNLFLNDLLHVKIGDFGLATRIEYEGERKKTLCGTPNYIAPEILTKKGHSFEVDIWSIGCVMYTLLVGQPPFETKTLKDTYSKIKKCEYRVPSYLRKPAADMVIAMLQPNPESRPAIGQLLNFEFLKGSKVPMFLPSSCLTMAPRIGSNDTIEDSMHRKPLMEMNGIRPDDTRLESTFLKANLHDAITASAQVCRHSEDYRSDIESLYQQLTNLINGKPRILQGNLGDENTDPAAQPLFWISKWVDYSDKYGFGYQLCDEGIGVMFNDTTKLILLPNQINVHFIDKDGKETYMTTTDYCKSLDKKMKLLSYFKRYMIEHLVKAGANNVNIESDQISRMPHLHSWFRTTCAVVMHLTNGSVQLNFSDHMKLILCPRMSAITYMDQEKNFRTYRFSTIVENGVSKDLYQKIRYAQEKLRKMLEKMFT

## WT Spd-2-ALFA (from UniProt Q9VV79) ∆Polo (all 34 S-S/T motifs mutated to T-S/T; individual positions not printed)
[1]
  response: 0.95 A.U.
[2]
  response: 2.3 A.U.
[3]
  response: 2.3 A.U.
[4]
  response: 0.85 A.U.
